± gives the standard deviation of the averaged measurements.
B1: library; a variant is named by its letters at N, in order (parent)
chain: GCUGUCACCGAGAAACUGUGAAGUAUAUCUUAAACCUGGGCACUUAAAAGAUAUAUGGAGUUAGUAGUGCAACCUGCUCGGUCUGAUGAGUCCNNNNNNGGACGAAACAGC

Experiments:
cyclic di-GMP [1] = variants of: B1; test: normalized RNA/DNA level without ligand (relative to sTRSVctl = 100) (log10 (% of sTRSVctl)); HEK293T; ligand: cyclic di-GMP (c-di-GMP-II aptamer); higher = less ribozyme self-cleavage, higher mRNA level; settings: reporter: mCherry (pCS4076), ligand present: no
How it was run: (§1)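 HEK293T cells received ligand, where used, 1 h before being transfected with 4 µg per 6-well well of library plasmids encoding reporter-linked ribozyme switches. After 72 h, RNA was extracted with EDTA and sequenced. RNA level was derived from RNA reads per DNA read, normalized to a spiked-in non-cleaving sequence or the top sequences, then scaled and log-transformed. Values were ×100 then log10, the top set was 25 sequences, and the minimum was 100 DNA reads.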

cyclic di-GMP [2] = variants of: B1; test: normalized RNA/DNA level with ligand (relative to sTRSVctl = 100) (log10 (% of sTRSVctl)); HEK293T; ligand: cyclic di-GMP (c-di-GMP-II aptamer); ligand concentration (+) RNA-Seq: 1 mM; higher = less ribozyme self-cleavage, higher mRNA level; settings: reporter: mCherry (pCS4076), ligand present: yes
How it was run: as §1

| Variant | normalized RNA/DNA level without ligand (log10) (cyclic di-GMP [1]) | normalized RNA/DNA level with ligand (log10) (cyclic di-GMP [2]) |
| --- | --- | --- |
| GCUGUCACCGAGAAACUGUGAAGUAUAUCUUAAACCUGGGCACUUAAAAGAUAUAUGGAGUUAGUAGUGCAACCUGCUCGGUCUGAUGAGUCCCUUGCUGGACGAAACAGC | 1.76 ± 0.021 | 1.86 ± 0.12 |
| GCUGUCACCGAGAAACUGUGAAGUAUAUCUUAAACCUGGGCACUUAAAAGAUAUAUGGAGUUAGUAGUGCAACCUGCUCGGUCUGAUGAGUCCCUUGCGGGACGAAACAGC | 1.78 ± 0.02 | 1.86 ± 0.12 |
| GCUGUCACCGAGAAACUGUGAAGUAUAUCUUAAACCUGGGCACUUAAAAGAUAUAUGGAGUUAGUAGUGCAACCUGCUCGGUCUGAUGAGUCCGUUGUAGGACGAAACAGC | 1.57 ± 0.024 | 1.77 ± 0.1 |
| GCUGUCACCGAGAAACUGUGAAGUAUAUCUUAAACCUGGGCACUUAAAAGAUAUAUGGAGUUAGUAGUGCAACCUGCUCGGUCUGAUGAGUCCCUUGGGGGACGAAACAGC | 1.74 ± 0.031 | 1.88 ± 0.13 |
| GCUGUCACCGAGAAACUGUGAAGUAUAUCUUAAACCUGGGCACUUAAAAGAUAUAUGGAGUUAGUAGUGCAACCUGCUCGGUCUGAUGAGUCCCUUGGCGGACGAAACAGC | 1.79 ± 0.034 | 1.92 ± 0.085 |
| GCUGUCACCGAGAAACUGUGAAGUAUAUCUUAAACCUGGGCACUUAAAAGAUAUAUGGAGUUAGUAGUGCAACCUGCUCGGUCUGAUGAGUCCCUUGGUGGACGAAACAGC | 1.76 ± 0.031 | 1.84 ± 0.11 |
| GCUGUCACCGAGAAACUGUGAAGUAUAUCUUAAACCUGGGCACUUAAAAGAUAUAUGGAGUUAGUAGUGCAACCUGCUCGGUCUGAUGAGUCCUUUGCUGGACGAAACAGC | 1.76 ± 0.057 | 1.88 ± 0.14 |
| GCUGUCACCGAGAAACUGUGAAGUAUAUCUUAAACCUGGGCACUUAAAAGAUAUAUGGAGUUAGUAGUGCAACCUGCUCGGUCUGAUGAGUCCUUUGCCGGACGAAACAGC | 1.838 ± 0.011 | 1.89 ± 0.079 |
| GCUGUCACCGAGAAACUGUGAAGUAUAUCUUAAACCUGGGCACUUAAAAGAUAUAUGGAGUUAGUAGUGCAACCUGCUCGGUCUGAUGAGUCCUUUGCGGGACGAAACAGC | 1.78 ± 0.066 | 1.88 ± 0.12 |
| GCUGUCACCGAGAAACUGUGAAGUAUAUCUUAAACCUGGGCACUUAAAAGAUAUAUGGAGUUAGUAGUGCAACCUGCUCGGUCUGAUGAGUCCAUUGGCGGACGAAACAGC | 1.67 ± 0.017 | 1.83 ± 0.076 |
| GCUGUCACCGAGAAACUGUGAAGUAUAUCUUAAACCUGGGCACUUAAAAGAUAUAUGGAGUUAGUAGUGCAACCUGCUCGGUCUGAUGAGUCCAUUGGGGGACGAAACAGC | 1.54 ± 0.16 | 1.75 ± 0.078 |
| GCUGUCACCGAGAAACUGUGAAGUAUAUCUUAAACCUGGGCACUUAAAAGAUAUAUGGAGUUAGUAGUGCAACCUGCUCGGUCUGAUGAGUCCAUUGUCGGACGAAACAGC | 1.73 ± 0.053 | 1.85 ± 0.15 |
| GCUGUCACCGAGAAACUGUGAAGUAUAUCUUAAACCUGGGCACUUAAAAGAUAUAUGGAGUUAGUAGUGCAACCUGCUCGGUCUGAUGAGUCCUUUGGCGGACGAAACAGC | 1.79 ± 0.033 | 1.9 ± 0.16 |
| GCUGUCACCGAGAAACUGUGAAGUAUAUCUUAAACCUGGGCACUUAAAAGAUAUAUGGAGUUAGUAGUGCAACCUGCUCGGUCUGAUGAGUCCUUUGGUGGACGAAACAGC | 1.73 ± 0.043 | 1.88 ± 0.066 |
| GCUGUCACCGAGAAACUGUGAAGUAUAUCUUAAACCUGGGCACUUAAAAGAUAUAUGGAGUUAGUAGUGCAACCUGCUCGGUCUGAUGAGUCCUUUGGGGGACGAAACAGC | 1.735 ± 0.0076 | 1.85 ± 0.074 |
| GCUGUCACCGAGAAACUGUGAAGUAUAUCUUAAACCUGGGCACUUAAAAGAUAUAUGGAGUUAGUAGUGCAACCUGCUCGGUCUGAUGAGUCCUUUGGAGGACGAAACAGC | 1.65 ± 0.051 | 1.79 ± 0.085 |
| GCUGUCACCGAGAAACUGUGAAGUAUAUCUUAAACCUGGGCACUUAAAAGAUAUAUGGAGUUAGUAGUGCAACCUGCUCGGUCUGAUGAGUCCAUUGCUGGACGAAACAGC | 1.73 ± 0.047 | 1.88 ± 0.081 |
| GCUGUCACCGAGAAACUGUGAAGUAUAUCUUAAACCUGGGCACUUAAAAGAUAUAUGGAGUUAGUAGUGCAACCUGCUCGGUCUGAUGAGUCCAUUGCGGGACGAAACAGC | 1.713 ± 0.012 | 1.83 ± 0.09 |
| GCUGUCACCGAGAAACUGUGAAGUAUAUCUUAAACCUGGGCACUUAAAAGAUAUAUGGAGUUAGUAGUGCAACCUGCUCGGUCUGAUGAGUCCCUUGUAGGACGAAACAGC | 1.57 ± 0.044 | 1.77 ± 0.12 |
| GCUGUCACCGAGAAACUGUGAAGUAUAUCUUAAACCUGGGCACUUAAAAGAUAUAUGGAGUUAGUAGUGCAACCUGCUCGGUCUGAUGAGUCCCUUGUCGGACGAAACAGC | 1.78 ± 0.048 | 1.89 ± 0.12 |
| GCUGUCACCGAGAAACUGUGAAGUAUAUCUUAAACCUGGGCACUUAAAAGAUAUAUGGAGUUAGUAGUGCAACCUGCUCGGUCUGAUGAGUCCGUUGGGGGACGAAACAGC | 1.6 ± 0.1 | 1.76 ± 0.065 |
| GCUGUCACCGAGAAACUGUGAAGUAUAUCUUAAACCUGGGCACUUAAAAGAUAUAUGGAGUUAGUAGUGCAACCUGCUCGGUCUGAUGAGUCCGUUGGAGGACGAAACAGC | 1.56 ± 0.097 | 1.72 ± 0.077 |
| GCUGUCACCGAGAAACUGUGAAGUAUAUCUUAAACCUGGGCACUUAAAAGAUAUAUGGAGUUAGUAGUGCAACCUGCUCGGUCUGAUGAGUCCGUUGGUGGACGAAACAGC | 1.611 ± 0.011 | 1.77 ± 0.1 |
| GCUGUCACCGAGAAACUGUGAAGUAUAUCUUAAACCUGGGCACUUAAAAGAUAUAUGGAGUUAGUAGUGCAACCUGCUCGGUCUGAUGAGUCCGUUGGCGGACGAAACAGC | 1.61 ± 0.022 | 1.79 ± 0.09 |
| GCUGUCACCGAGAAACUGUGAAGUAUAUCUUAAACCUGGGCACUUAAAAGAUAUAUGGAGUUAGUAGUGCAACCUGCUCGGUCUGAUGAGUCCGUUGCCGGACGAAACAGC | 1.76 ± 0.013 | 1.87 ± 0.1 |
| GCUGUCACCGAGAAACUGUGAAGUAUAUCUUAAACCUGGGCACUUAAAAGAUAUAUGGAGUUAGUAGUGCAACCUGCUCGGUCUGAUGAGUCCGUUGCUGGACGAAACAGC | 1.7 ± 0.039 | 1.84 ± 0.1 |

— the supplement of paper PMC6757056
